Test results taken from patent US9896495 (ZEALAND PHARMA A S, dated 2018).
*1 amine or outer side, *2 acyl side, *3 side chain or, on linkers, in order; H or OH if unused. Side-chain parts run from the residue outwards. [ ]: non-standard residue; d: D form. The star is where a group is joined. C18 diacid = O=C(O)CCCCCCCCCCCCCCCCC(=O)*; γGlu = O=C(O)[C@H](CCC(=O)[*:2])N[*:1]; Ac4c = NC1(C(=O)O)CCC1; Aib = CC(C)(N)C(=O)O

B1: H-H-Aib-QGTFTSDYSKYLE-K([17-carboxy-heptadecanoyl]-isoGlu-GSGSGG)-RAAKDFIEWLESA-NH2 (peptide)
peptide: HXQGTFTSDYSKYLEKRAAKDFIEWLESA
modifications: Aib at position 2; Lys 16 side chain conjugated to [17-carboxy-heptadecanoyl]-isoGlu-GSGSGG; C-terminal amide
B2: H-H-Ac4c-HGTFTSDYSKYLDE-K([17-carboxy-heptadecanoyl]-isoGlu-Peg3-Peg3)-RAKDFIEWLESA-NH2 (peptide)
peptide: H-H[Ac4c]HGTFTSDYSKYLDEK([Peg3-Peg3-γGlu-C18 diacid])RAKDFIEWLESA-NH2
B3: H-H-Ac4c-QGTFTSDYSKYLDERAAKDFI-K([17-carboxy-heptadecanoyl]-isoGlu-GSGSGG)-WLESA-NH2 (peptide)
peptide: H-H[Ac4c]QGTFTSDYSKYLDERAAKDFIKWLESA-NH2
modifications: not fully specified (residue 24)
B4: H-H-Ac4c-QGTFTSDYSKYLD-K([17-carboxy-heptadecanoyl]-isoGlu-GSGSGG)-RAAKDFIEWLESA-NH2 (peptide)
peptide: HXQGTFTSDYSKYLDKRAAKDFIEWLESA
modifications: Ac4c at position 2; Lys 16 side chain conjugated to [17-carboxy-heptadecanoyl]-isoGlu-GSGSGG; C-terminal amide
B5: H-H-Aib-QGTFTSDYSKYLD-K([17-carboxy-heptadecanoyl]-isoGlu-Peg3-Peg3)-RAAKDFIEWLESA-NH2 (peptide)
peptide: H-H[Aib]QGTFTSDYSKYLDK([Peg3-Peg3-γGlu-C18 diacid])RAAKDFIEWLESA-NH2
B6: H-H-Ac4c-QGTFTSDYSKYLDE-K([17-carboxy-heptadecanoyl]-isoGlu)-RAKDFIEWLESA-NH2 (peptide)
peptide: H-H[Ac4c]QGTFTSDYSKYLDEK([γGlu-C18 diacid])RAKDFIEWLESA-NH2
SMILES: CC[C@H](C)[C@H](NC(=O)[C@H](Cc1ccccc1)NC(=O)[C@H](CC(=O)O)NC(=O)[C@H](CCCCN)NC(=O)[C@H](C)NC(=O)[C@H](CCCNC(=N)N)NC(=O)[C@H](CCCCNC(=O)CC[C@H](NC(=O)CCCCCCCCCCCCCCCCC(=O)O)C(=O)O)NC(=O)[C@H](CCC(=O)O)NC(=O)[C@H](CC(=O)O)NC(=O)[C@H](CC(C)C)NC(=O)[C@H](Cc1ccc(O)cc1)NC(=O)[C@H](CCCCN)NC(=O)[C@H](CO)NC(=O)[C@H](Cc1ccc(O)cc1)NC(=O)[C@H](CC(=O)O)NC(=O)[C@H](CO)NC(=O)[C@@H](NC(=O)[C@H](Cc1ccccc1)NC(=O)[C@@H](NC(=O)CNC(=O)[C@H](CCC(N)=O)NC(=O)C1(NC(=O)[C@@H](N)Cc2c[nH]cn2)CCC1)[C@@H](C)O)[C@@H](C)O)C(=O)N[C@@H](CCC(=O)O)C(=O)N[C@@H](Cc1c[nH]c2ccccc12)C(=O)N[C@@H](CC(C)C)C(=O)N[C@@H](CCC(=O)O)C(=O)N[C@@H](CO)C(=O)N[C@@H](C)C(N)=O
B7: H-H-Ac4c-QGTFTSDYSKYLDERRAKDFI-K([17-carboxy-heptadecanoyl]-isoGlu-GSGSGG)-WLESA-NH2 (peptide)
peptide: HXQGTFTSDYSKYLDERRAKDFIKWLESA
modifications: Ac4c at position 2; Lys 24 side chain conjugated to [17-carboxy-heptadecanoyl]-isoGlu-GSGSGG; C-terminal amide
B8: H-H-Aib-QGTFTSDYSKYLD-K([17-carboxy-heptadecanoyl]-isoGlu-GSGSGG)-RAAKDFIEWLESA-NH2 (peptide)
peptide: HXQGTFTSDYSKYLDKRAAKDFIEWLESA
modifications: Aib at position 2; Lys 16 side chain conjugated to [17-carboxy-heptadecanoyl]-isoGlu-GSGSGG; C-terminal amide
B9: H-H-Ac4c-QGTFTSDYSKYLDE-K([17-carboxy-heptadecanoyl]-isoGlu)-AAKDFIEWLESA-NH2 (peptide)
peptide: H-H[Ac4c]QGTFTSDYSKYLDEK([γGlu-C18 diacid])AAKDFIEWLESA-NH2
SMILES: CC[C@H](C)[C@H](NC(=O)[C@H](Cc1ccccc1)NC(=O)[C@H](CC(=O)O)NC(=O)[C@H](CCCCN)NC(=O)[C@H](C)NC(=O)[C@H](C)NC(=O)[C@H](CCCCNC(=O)CC[C@H](NC(=O)CCCCCCCCCCCCCCCCC(=O)O)C(=O)O)NC(=O)[C@H](CCC(=O)O)NC(=O)[C@H](CC(=O)O)NC(=O)[C@H](CC(C)C)NC(=O)[C@H](Cc1ccc(O)cc1)NC(=O)[C@H](CCCCN)NC(=O)[C@H](CO)NC(=O)[C@H](Cc1ccc(O)cc1)NC(=O)[C@H](CC(=O)O)NC(=O)[C@H](CO)NC(=O)[C@@H](NC(=O)[C@H](Cc1ccccc1)NC(=O)[C@@H](NC(=O)CNC(=O)[C@H](CCC(N)=O)NC(=O)C1(NC(=O)[C@@H](N)Cc2c[nH]cn2)CCC1)[C@@H](C)O)[C@@H](C)O)C(=O)N[C@@H](CCC(=O)O)C(=O)N[C@@H](Cc1c[nH]c2ccccc12)C(=O)N[C@@H](CC(C)C)C(=O)N[C@@H](CCC(=O)O)C(=O)N[C@@H](CO)C(=O)N[C@@H](C)C(N)=O
B10: H-H-Ac4c-QGTFTSDYSKYLDE-K([17-carboxy-heptadecanoyl]-isoGlu-Peg3-Peg3)-RAKDFIEWLESA-NH2 (peptide)
peptide: H-H[Ac4c]QGTFTSDYSKYLDEK([Peg3-Peg3-γGlu-C18 diacid])RAKDFIEWLESA-NH2
B11: H-H-Aib-QGTFTSDYSKYLDERAAKDFI-K([17-carboxy-heptadecanoyl]-isoGlu-GSGSGG)-WLESA-NH2 (peptide)
peptide: HXQGTFTSDYSKYLDERAAKDFIKWLESA
modifications: Aib at position 2; Lys 24 side chain conjugated to [17-carboxy-heptadecanoyl]-isoGlu-GSGSGG; C-terminal amide
B12: H-H-Aib-QGTFTSDYSKYLDS-K([15-carboxy-pentadecanoyl]-isoGlu)-AAHDFVEWLLSA-NH2 (peptide)
peptide: HXQGTFTSDYSKYLDSKAAHDFVEWLLSA
modifications: Aib at position 2; Lys 17 side chain conjugated to [15-carboxy-pentadecanoyl]-isoGlu; C-terminal amide
B13: H-H-Aib-QGTFTSDYSKYLE-K([17-carboxy-heptadecanoyl]-isoGlu-Peg3-Peg3)-RAAHDFIEWLESA-NH2 (peptide)
peptide: H-H[Aib]QGTFTSDYSKYLEK([Peg3-Peg3-γGlu-C18 diacid])RAAHDFIEWLESA-NH2
B14: H-H-Ac4c-QGTFTSDYSKYLDERAAKDFIEWLE-K([17-carboxy-heptadecanoyl]-isoGlu-GSGSGG)-A-NH2 (peptide)
peptide: HXQGTFTSDYSKYLDERAAKDFIEWLEKA
modifications: Ac4c at position 2; Lys 28 side chain conjugated to [17-carboxy-heptadecanoyl]-isoGlu-GSGSGG; C-terminal amide
B15: H-H-Aib-QGTFTSDYSKYLDE-K([17-carboxy-heptadecanoyl]-isoGlu)-AAKDFIEWLESA-NH2 (peptide)
peptide: HXQGTFTSDYSKYLDEKAAKDFIEWLESA
modifications: Aib at position 2; Lys 17 side chain conjugated to [17-carboxy-heptadecanoyl]-isoGlu; C-terminal amide
B16: H-H-Ac4c-QGTFTSDYSKYLDERRAKDFIEWLE-K([17-carboxy-heptadecanoyl]-isoGlu-GSGSGG)-A-NH2 (peptide)
peptide: HXQGTFTSDYSKYLDERRAKDFIEWLEKA
modifications: Ac4c at position 2; Lys 28 side chain conjugated to [17-carboxy-heptadecanoyl]-isoGlu-GSGSGG; C-terminal amide

target: human glucagon receptor (Glucagon-R) (human, UniProt P47871 26-477); experiment: cell-based or functional assay
Sequence (P47871 26-477): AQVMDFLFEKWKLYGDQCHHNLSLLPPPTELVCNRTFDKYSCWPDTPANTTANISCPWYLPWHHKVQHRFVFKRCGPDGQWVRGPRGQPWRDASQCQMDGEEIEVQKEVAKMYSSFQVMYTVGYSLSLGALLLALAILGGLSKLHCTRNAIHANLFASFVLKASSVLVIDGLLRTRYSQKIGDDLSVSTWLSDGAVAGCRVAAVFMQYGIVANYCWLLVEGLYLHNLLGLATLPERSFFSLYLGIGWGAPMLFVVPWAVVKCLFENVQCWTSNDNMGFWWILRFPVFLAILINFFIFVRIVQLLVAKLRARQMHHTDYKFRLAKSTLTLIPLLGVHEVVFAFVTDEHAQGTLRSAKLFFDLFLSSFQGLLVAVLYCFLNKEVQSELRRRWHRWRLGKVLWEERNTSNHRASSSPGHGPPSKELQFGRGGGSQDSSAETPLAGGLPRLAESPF

Binder | EC50 hGCGR CHO-K1 [nM] (cAMP, AlphaScreen)
B1 | 0.44 nM
B2 | 0.07 nM
B3 | 0.52 nM
B4 | 0.11 nM
B5 | 0.13 nM
B6 | 0.07 nM
B7 | 0.18 nM
B8 | 0.18 nM
B9 | 0.28 nM
B10 | 0.45 nM
B11 | 1.48 nM
B12 | 0.21 nM
B13 | 0.31 nM
B14 | 0.92 nM
B15 | 1.08 nM
B16 | 0.16 nM

target: human glucagon-like peptide 1 receptor (GLP-1R) (human, UniProt P43220 24-463); experiment: cell-based or functional assay

Binder | EC50 hGLP-1R CHO-K1 [nM] (cAMP, AlphaScreen)
B1 | 1.43 nM
B2 | 0.97 nM
B3 | 0.33 nM
B4 | 0.97 nM
B5 | 1.76 nM
B6 | 0.48 nM
B7 | 0.6 nM
B8 | 0.83 nM
B9 | 0.56 nM
B10 | 0.7 nM
B11 | 0.7 nM
B12 | 0.38 nM
B13 | 0.8 nM
B14 | 0.61 nM
B15 | 0.41 nM
B16 | 0.53 nM

target: T1, endogenous GLP-1 receptor of a murine insulinoma cell line (murine, UniProt O35659 22-463); experiment: cell-based or functional assay
T1 sequence (looked up): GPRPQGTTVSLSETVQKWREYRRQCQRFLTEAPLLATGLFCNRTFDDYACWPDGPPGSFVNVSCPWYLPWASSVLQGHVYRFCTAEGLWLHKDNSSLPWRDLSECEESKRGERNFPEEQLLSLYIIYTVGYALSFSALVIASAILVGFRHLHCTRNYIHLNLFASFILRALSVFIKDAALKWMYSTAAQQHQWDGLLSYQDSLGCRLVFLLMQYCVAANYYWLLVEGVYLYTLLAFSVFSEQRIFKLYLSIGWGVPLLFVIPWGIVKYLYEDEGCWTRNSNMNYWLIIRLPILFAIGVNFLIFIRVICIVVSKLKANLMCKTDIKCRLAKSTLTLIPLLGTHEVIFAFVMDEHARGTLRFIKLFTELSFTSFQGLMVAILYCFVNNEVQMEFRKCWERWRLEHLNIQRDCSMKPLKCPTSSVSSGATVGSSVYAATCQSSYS

Binder | EC50 [nM] (cAMP in a murine insulinoma cell line)
B1 | 0.54 nM
B2 | 0.84 nM
B3 | 0.37 nM
B4 | 0.47 nM
B5 | 0.69 nM
B6 | 0.81 nM
B7 | 0.38 nM
B8 | 0.65 nM
B9 | 0.72 nM
B10 | 0.4 nM
B11 | 0.15 nM
B12 | 0.6 nM
B13 | 0.36 nM
B14 | 0.25 nM
B15 | 0.6 nM
B16 | 0.34 nM

target: endogenous glucagon receptor of primary rat hepatocytes (rat, UniProt P30082 27-485); experiment: cell-based or functional assay
Sequence (P30082 27-485): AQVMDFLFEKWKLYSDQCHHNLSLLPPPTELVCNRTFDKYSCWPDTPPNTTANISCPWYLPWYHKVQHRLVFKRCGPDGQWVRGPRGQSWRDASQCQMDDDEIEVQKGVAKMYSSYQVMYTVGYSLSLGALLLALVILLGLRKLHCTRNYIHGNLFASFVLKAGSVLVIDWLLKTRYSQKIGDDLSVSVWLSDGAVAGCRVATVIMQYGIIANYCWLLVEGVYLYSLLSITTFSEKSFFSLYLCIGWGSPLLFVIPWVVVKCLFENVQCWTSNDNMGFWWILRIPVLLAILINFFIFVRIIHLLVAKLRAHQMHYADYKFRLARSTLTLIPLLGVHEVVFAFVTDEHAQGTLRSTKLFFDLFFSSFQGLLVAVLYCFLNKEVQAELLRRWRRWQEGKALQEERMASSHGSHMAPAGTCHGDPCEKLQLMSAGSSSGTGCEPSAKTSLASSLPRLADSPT

Binder | EC50 [nM] (inhibition of glycogen synthesis rate in primary rat hepatocytes)
B1 | 0.8 nM
B2 | 0.11 nM
B3 | 0.43 nM
B4 | 0.34 nM
B5 | 0.11 nM
B6 | 0.45 nM
B7 | 0.19 nM
B8 | 0.21 nM
B9 | 0.95 nM
B10 | 1.79 nM
B11 | 0.94 nM
B12 | 0.85 nM
B13 | 0.29 nM
B14 | 3.63 nM
B15 | 1.53 nM
B16 | 0.19 nM
